Experimental findings from patent publication US20070154954A1, “Fluorescence polarization assay” (TRANSTECH PHARMA, INC., priority 2004, published 2007) are described below.

Data set [1] has as its target recombinant human sRAGE (Homo sapiens, UniProt Q15109). The experiment in a line: Fluorescence polarization competition assay: displacement of fluorescent amyloid beta (1-40) from sRAGE. The conditions noted are these: read-out: EC50 for competing with fluoresceinated amyloid beta (1-40) for binding to sRAGE, unlabeled ligand, sRAGE 40 nM, fluorescent amyloid beta (1-40) 50 nM, 37° C. 1 hour, FIG. 4, mean of four measurements. The protocol:
(§1) Once dissolved, the peptide is diluted with phosphate-buffered saline (calcium-free) to a concentration of 1 mg/ml and allowed to incubate at 37° C. for 24-48 hours.
The complex was incubated at 37° C. for 1 hour and then the milli-polarization (mP) value was read using an Envision plate reader (Perkin Ekmer). In some cases, depending on the purity of the human sRAGE, 0.1% bovine serum albumin (BSA) or 0.05% of the detergent TWEEN 20 may be added to the phospahte buffered saline to reduce background binding of the sRAGE to the assay well.

Data set [2] concerns the target T1, recombinant human sRAGE (human, UniProt Q15109 23-339).
T1 construct: also called soluble RAGE
Description: fluorescence polarization, displacement of fluorescent amyloid beta (1-40) from sRAGE. The protocol: as §1
The complex was incubated at 37° C. for 1 hour and then the milli-polarization (mP) value was read using an Envision plate reader (Perkin Ekmer).
A general note: Polarisation of emitted light reports the rotation of a fluorescent probe.

Like-named read-outs stand apart in the source and are kept apart here.

Chain of recombinant human sRAGE (Homo sapiens, UniProt Q15109) (Q15109 23-339): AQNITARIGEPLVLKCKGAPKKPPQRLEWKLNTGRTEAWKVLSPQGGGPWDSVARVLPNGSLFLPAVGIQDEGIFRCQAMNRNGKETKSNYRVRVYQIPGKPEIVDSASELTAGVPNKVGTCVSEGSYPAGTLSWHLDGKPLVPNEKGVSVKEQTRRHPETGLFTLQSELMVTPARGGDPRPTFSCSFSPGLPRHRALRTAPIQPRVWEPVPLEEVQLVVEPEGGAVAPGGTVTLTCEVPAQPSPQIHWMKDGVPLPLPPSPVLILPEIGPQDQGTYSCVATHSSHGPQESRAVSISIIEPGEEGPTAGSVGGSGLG
T1 sequence (Q15109 23-339 limits assumed): as the sequence (Q15109 23-339) above

Take “s100b: unlabeled S100b, calgranulin-like RAGE ligand”: the EC50 is approximately 43 nM with recombinant human sRAGE [1] and 43 nM with recombinant human sRAGE [1] (listed as S100b).

B1: unlabeled S100b (ligand)
chain: MSELEKAMVALIDVFHQYSGREGDKHKLKKSELKELINNELSHFLEEIKEQEVVDKVMETLDNDGDGECDFQEFMAFVAMVTTACHEFFEHE
Consider B1, for which the EC50 in the data set with recombinant human sRAGE [2] worked out at 43 nM.
